Reference: article PMC11602130 (Nucleic Acids Research, 2024)

Target: CSA (human, untagged after removal of GST) (human, UniProt Q13216 1-396)
Assay: pull-down

CSA (human, untagged after removal of GST), sequence (Q13216 whole entry): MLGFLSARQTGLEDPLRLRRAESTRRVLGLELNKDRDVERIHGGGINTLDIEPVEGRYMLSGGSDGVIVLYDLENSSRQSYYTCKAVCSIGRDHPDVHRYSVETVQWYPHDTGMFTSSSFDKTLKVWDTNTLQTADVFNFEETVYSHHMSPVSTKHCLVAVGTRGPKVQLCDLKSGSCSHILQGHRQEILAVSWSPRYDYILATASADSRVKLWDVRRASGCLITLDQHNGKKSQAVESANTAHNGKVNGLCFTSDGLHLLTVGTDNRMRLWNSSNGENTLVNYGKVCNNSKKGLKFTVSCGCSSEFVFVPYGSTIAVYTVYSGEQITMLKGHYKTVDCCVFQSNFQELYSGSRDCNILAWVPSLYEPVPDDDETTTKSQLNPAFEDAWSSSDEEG

binding result: binds
B1: His-STK19 (human STK19S, 254aa isoform) (natural protein, UniProt P49842 1-254, looked up)
chain: MSWKRHHLIPETFGVKRRRKRGPVESDPLRGEPGSARAAVSELMQLFPRGLFEDALPPIVLRSQVYSLVPDRTVADRQLKELQEQGEIRIVQLGFDLDAHGIIFTEDYRTRVLKACDGRPYAGAVQKFLASVLPACGDLSFQQDQMTQTFGFRDSEITHLVNAGVLTVRDAGSWWLAVPGAGRFIKYFVKGRQAVLSMVRKAKYRELLLSELLGRRAPVVVRLGLTYHVHDLIGAQLVDCISTTSGTLLRLPET
